From the supplement of paper PMC10201428
± gives the standard deviation of the averaged measurements.

Experiments:
[1] = test system: VchCAST RNA-guided transposition machinery (E. coli BL21(DE3) host, lacZ target); test: relative integration efficiency (T-RL orientation) vs wild-type transposon end (log2 (normalized fold change)); transposon end mutated: right end (5 bp flank + 75 bp right end); higher = more efficient transposition
Summary of the method: (§1)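 In E. coli BL21(DE3), a T7-driven effector plasmid was paired with a pUC57 mini-transposon donor containing 1549 left-end or 1849 right-end barcoded transposon variants. Cells grew on plates with 0.1 mM IPTG at 37°C for 18 h. Relative integration efficiency was derived from Illumina reads of genomic integration junctions against input plasmids, as a log-transformed output/input barcode fold change normalised to reference barcodes.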

[2] = test system: VchCAST RNA-guided transposition machinery (E. coli BL21(DE3) host, lacZ target); test: relative integration efficiency (T-LR orientation) vs wild-type transposon end (log2 (normalized fold change)); transposon end mutated: right end (5 bp flank + 75 bp right end); higher = more efficient transposition
Summary of the method: as §1

Sequence | relative integration efficiency (log2) [1] | relative integration efficiency (log2) [2]
ACATTTGTTGATCAACCATAAAATGATAATTACACCCATAAATTGATAATTATCACACCCATAAATTGATATTGCCTCTGATCATAGTCAGACCAACATTGCTACGACCCGTATTCGCACCGACACT | -8.26 ± 0.75 | -4.42 ± 0.092
ACATTTGTTGATCACCCCATAAAATGATAATTACACCCATAAATTGATAATTATCACACCCATAAATTGATATTGCCTCTGATCATAGTCAGACCAACATTGCTACGACCCGTATTCGCACCGACAC | -0.839 ± 0.08 | -1.51 ± 0.22
ACATTTGTTGATCCAACCATAAAATGATAATTACACCCATAAATGGATAATTATCACACCCAATTTAACTATAACGCTCTGATCATAGTCAGACCAACATTGCTACGACCCGTATTCGCACCGACAC | -1.51 ± 0.15 | 1.15 ± 0.043
ACATTTGTTGATCCAACCATAAAATGATAATTACACCCATAAATGGATCATTATCACACCCAATTTAACTATAACGCTCTGATCATAGTCAGACCAACATTGCTACGACCCGTATTCGCACCGACAC | -1.74 ± 0.32 | 1.13 ± 0.26
ACATTTGTTGATCCAACCATAAAATGATAATTACACCCATAAATTCATAATTATCACACCCAATTTAACTATAACGCTCTGATCATAGTCAGACCAACATTGCTACGACCCGTATTCGCACCGACAC | -2.07 ± 0.2 | 0.916 ± 0.17
ACATTTGTTGATCCAACCATAAAATGATAATTACACCCATAAATTCATCATTATCACACCCAATTTAACTATAACGCTCTGATCATAGTCAGACCAACATTGCTACGACCCGTATTCGCACCGACAC | -2.42 ± 0.5 | 1.23 ± 0.14
ACATTTGTTGATCCAACCATAAAATGATAATTACACCCATAAATTGATCATTATCACACCCAATTTAACTATAACGCTCTGATCATAGTCAGACCAACATTGCTACGACCCGTATTCGCACCGACAC | -1.7 ± 0.3 | 1.98 ± 0.02
ACATTTGTTGATTGAACCATAAAATGATAATTACACCCATAAATTGATAATTATCACACCCATAAATTGATATTGCCTCTGATCATAGTCAGACCAACATTGCTACGACCCGTATTCGCACCGACAC | -0.172 ± 0.032 | -1.4 ± 0.71
ACATTTGTTGATTGTTCCATAAAATGATAATTACACCCATAAATTGATAATTATCACACCCATAAATTGATATTGCCTCTGATCATAGTCAGACCAACATTGCTACGACCCGTATTCGCACCGACAC | -1.3 ± 0.19 | -1.3 ± 0.53
ACATTTGTTGCGACAACCATAAAATGATAATTACACCCATAAATTGATAATTATCACACCCATAAATTGATATTGCCTCTGATCATAGTCAGACCAACATTGCTACGACCCGTATTCGCACCGACAC | -0.447 ± 0.038 | -1.69 ± 0.07
ACATTTGTTGCGCAAACCATAAAATGATAATTACACCCATAAATTGATAATTATCACACCCATAAATTGATATTGCCTCTGATCATAGTCAGACCAACATTGCTACGACCCGTATTCGCACCGACAC | -0.839 ± 0.087 | -2.91 ± 0.35
ACATTTGTTGTAACAACCATAAAATGATAATTACACCCATAAATTGATAATTATCACACCCATAAATTGATATTGCCTCTGATCATAGTCAGACCAACATTGCTACGACCCGTATTCGCACCGACAC | -0.2 ± 0.038 | -1.09 ± 0.54
ACATTTGTTGTATGAACCATAAAATGATAATTACACCCATAAATTGATAATTATCACACCCATAAATTGATATTGCCTCTGATCATAGTCAGACCAACATTGCTACGACCCGTATTCGCACCGACAC | -0.782 ± 0.022 | -2.29 ± 0.23
ACATTTGTTTATACAACCATAAAATGATAATTACACCCATAAATGGATAATTATCACACCCAATTTAACTATAACGCTCTGATCATAGTCAGACCAACATTGCTACGACCCGTATTCGCACCGACAC | -1.86 ± 0.27 | -0.232 ± 0.5
ACATTTGTTTATACAACCATAAAATGATAATTACACCCATAAATGGATTATTATCACACCCAATTTAACTATAACGCTCTGATCATAGTCAGACCAACATTGCTACGACCCGTATTCGCACCGACAC | -2.39 ± 0.61 | -1.01 ± 0.12
ACATTTGTTTATACAACCATAAAATGATAATTACACCCATAAATTCATAATTATCACACCCAATTTAACTATAACGCTCTGATCATAGTCAGACCAACATTGCTACGACCCGTATTCGCACCGACAC | -2.45 ± 0.3 | -0.939 ± 0.036
ACATTTGTTTATACAACCATAAAATGATAATTACACCCATAAATTCATTATTATCACACCCAATTTAACTATAACGCTCTGATCATAGTCAGACCAACATTGCTACGACCCGTATTCGCACCGACAC | -3.21 ± 0.16 | -0.961 ± 0.16
ACATTTGTTTATACAACCATAAAATGATAATTACACCCATAAATTTATAATTATCACACCCAATTTAACTATAACGCTCTGATCATAGTCAGACCAACATTGCTACGACCCGTATTCGCACCGACAC | -1.89 ± 0.13 | 0.00132 ± 0.14
ACATTTGTTTATACAACCATAAAATGATAATTACACCCATAAATTTATTATTATCACACCCAATTTAACTATAACGCTCTGATCATAGTCAGACCAACATTGCTACGACCCGTATTCGCACCGACAC | -2.66 ± 0.6 | -0.334 ± 0.058
ACATTTGTTTCGCCAACCATAAAATGATAATTACACCCATAAATTGATAATTATCACACCCATAAATTGATATTGCCTCTGATCATAGTCAGACCAACATTGCTACGACCCGTATTCGCACCGACAC | -1.72 ± 0.26 | -3.75 ± 0.98
ACATTTGTTTCTACAACCATAAAATGATAATTACACCCATAAATTGATAATTATCACACCCATAAATTGATATTGCCTCTGATCATAGTCAGACCAACATTGCTACGACCCGTATTCGCACCGACAC | -1.06 ± 0.14 | -3.43 ± 0.18
ACATTTTGGTATACAACCATAAAATGATAATTACACCCATAAATTGATAATTATCACACCCATAAATTGATATTGCCTCTGATCATAGTCAGACCAACATTGCTACGACCCGTATTCGCACCGACAC | -5.963 ± 0.038 | -6.61 ± 2.1
ACATTTTGTGATACAACCATAAAATGATAATTACACCCATAAATTGATAATTATCACACCCATAAATTGATATTGCCTCTGATCATAGTCAGACCAACATTGCTACGACCCGTATTCGCACCGACAC | -6.54 ± 0.24 | < -10
ACCGGGGTTGATACAACCATAAAATGATAATTACACCCATAAATTGATAATTATCACACCCATAAATTGATATTGCCTCTGATCATAGTCAGACCAACATTGCTACGACCCGTATTCGCACCGACAC | -6.81 ± 0.49 | -5.64 ± 0.3
ACCGTTGTTGATACAACCATAAAATGATAATTACACCCATAAATTGATAATTATCACACCCATAAATTGATATTGCCTCTGATCATAGTCAGACCAACATTGCTACGACCCGTATTCGCACCGACAC | -0.00193 ± 0.024 | 0.612 ± 0.13
ACTAAAGTTGATACAACCATAAAATGATAATTACACCCATAAATTGATAATTATCACACCCATAAATTGATATTGCCTCTGATCATAGTCAGACCAACATTGCTACGACCCGTATTCGCACCGACAC | -6.65 ± 0.58 | -4.99 ± 1.1
ACTATTGTTGATACAACCATAAAATGATAATTACACCCATAAATTGATAATTATCACACCCATAAATTGATATTGCCTCTGATCATAGTCAGACCAACATTGCTACGACCCGTATTCGCACCGACAC | 0.151 ± 0.07 | 0.436 ± 0.12
